Reference: paper doi:10.1101/824060 (bioRxiv, 2019)

B1: Gid2 (natural protein)
chain: MSELLDSFETEFAKFYTDSNLEETNLQKCLDHTHEFKSQLKKLKAHLNKHIQESKPEVYNKLSDKEKQKFKRKRELIIEKLSKSQRQWDHSVKKQIKYVSQQSNRFNKSTLNKLKEFDIDSVYVNKLPKETMENVNEAIGYHILRYSIDNMPLGNKNEAFQYLKDVYGITNKESTEFIEMGQIVHDLKKGDTESCLKWCSNEMESLSSNHTALSSLKFDLYTLSAMQIVKHGNPVELYYQITQNAPLDCFRHREKELMQNVVPLLTKSLIGQPIEDIDSKVNKELKECTSLFIKEYCAAKHIFFDSPLFLIVLSGLISFQFFIKYKTIRELAHVDWTTKDELPFDVKLPDFLTHFHPIFICPVLKEETTTENPPYSLACHHIISKKALDRLSKNGTITFKCPYCPVNTSMSSTKKVRFVML
B2: Gid8 with 3X Flag tag at the C-terminus (endogenous, strain CRLY45) (natural protein)
chain: MTISTLSNETTKSGSCSGQGKNGGKDFTYGKKCFTKEEWKEQVAKYSAMGELYANKTIHYPLKIQPNSSGGSQDEGFATIQTTPIEPTLPRLLLNYFVSMAYEDSSIRMAKELGFIRNNKDIAVFNDLYKIKERFHIKHLIKLGRINEAMEEINSIFGLEVLEETFNATGSYTGRTDRQQQQQQQQFDIDGDLHFKLLLLNLIEMIRSHHQQENITKDSNDFILNLIQYSQNKLAIKASSSVKKMQELELAMTLLLFPLSDSADSGSIKLPKSLQNLYSISLRSKIADLVNEKLLKFIHPRIQFEISNNNSKFPDLLNSDKKIITQNFTVYNNNLVNGSNGTKITHISSDQPINEKMSSNEVTAAANSVWLNQRDGNVGTGSAATTFHNLENKNYWNQTSELLSSSNGKEKGLEFNNYYSSEFPYEPRLTQIMKLWCWCENQLHHNQIGVPRVEN
B3: Gid8 (natural protein)
chain: B2 chain

Key:
Gid9 = molecular target: T1, Gid9 (S. cerevisiae, UniProt P40492 1-516); assay: […]
T1 sequence: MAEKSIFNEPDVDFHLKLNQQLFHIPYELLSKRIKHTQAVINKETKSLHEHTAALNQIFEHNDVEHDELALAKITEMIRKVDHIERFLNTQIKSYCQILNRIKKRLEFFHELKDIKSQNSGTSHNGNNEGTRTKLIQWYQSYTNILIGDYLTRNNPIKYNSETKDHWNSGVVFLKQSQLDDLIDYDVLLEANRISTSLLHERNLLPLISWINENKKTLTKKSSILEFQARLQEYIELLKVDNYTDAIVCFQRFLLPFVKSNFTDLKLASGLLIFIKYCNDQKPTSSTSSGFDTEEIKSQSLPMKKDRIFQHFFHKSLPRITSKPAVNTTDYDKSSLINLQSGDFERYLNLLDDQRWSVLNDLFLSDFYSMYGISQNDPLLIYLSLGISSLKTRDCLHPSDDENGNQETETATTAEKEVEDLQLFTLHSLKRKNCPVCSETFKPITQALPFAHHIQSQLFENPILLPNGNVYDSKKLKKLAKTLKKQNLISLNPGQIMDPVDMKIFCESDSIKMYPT

[1] = molecular target: T2, Gid1 (endogenous, in native GID^Ant) (S. cerevisiae (endogenous in strain …, UniProt P53076 1-958)); assay: cryo-EM structure
T2 sequence: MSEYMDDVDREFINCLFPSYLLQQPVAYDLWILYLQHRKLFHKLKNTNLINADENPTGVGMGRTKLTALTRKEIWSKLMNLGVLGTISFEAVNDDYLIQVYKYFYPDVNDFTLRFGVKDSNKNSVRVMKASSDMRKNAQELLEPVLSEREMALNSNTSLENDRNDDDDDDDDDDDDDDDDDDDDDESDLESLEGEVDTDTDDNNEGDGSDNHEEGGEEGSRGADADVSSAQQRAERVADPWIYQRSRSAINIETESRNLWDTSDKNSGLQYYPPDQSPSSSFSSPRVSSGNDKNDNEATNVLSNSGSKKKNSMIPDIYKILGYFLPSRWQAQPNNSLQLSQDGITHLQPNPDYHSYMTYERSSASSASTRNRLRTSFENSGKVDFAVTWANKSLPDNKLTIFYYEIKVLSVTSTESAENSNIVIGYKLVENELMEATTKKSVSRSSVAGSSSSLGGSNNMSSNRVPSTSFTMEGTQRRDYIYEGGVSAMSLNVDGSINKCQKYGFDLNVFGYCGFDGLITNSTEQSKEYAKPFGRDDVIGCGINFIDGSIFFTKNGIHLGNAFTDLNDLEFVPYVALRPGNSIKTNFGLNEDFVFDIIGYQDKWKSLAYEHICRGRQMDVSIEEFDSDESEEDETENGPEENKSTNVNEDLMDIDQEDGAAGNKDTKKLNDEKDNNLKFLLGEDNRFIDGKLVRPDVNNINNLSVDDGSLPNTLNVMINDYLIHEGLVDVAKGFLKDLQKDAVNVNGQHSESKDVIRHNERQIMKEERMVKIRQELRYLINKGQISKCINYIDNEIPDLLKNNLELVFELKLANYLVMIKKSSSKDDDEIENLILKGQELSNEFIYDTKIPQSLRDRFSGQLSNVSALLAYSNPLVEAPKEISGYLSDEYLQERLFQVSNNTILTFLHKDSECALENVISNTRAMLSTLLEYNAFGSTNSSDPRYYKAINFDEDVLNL

[2] = molecular target: T3, Gid9 (endogenous, in native GID^Ant) (S. cerevisiae (endogenous in strain …, UniProt P40492 1-516)); assay: cryo-EM structure
T3 sequence: T1 sequence

Gid1 = molecular target: T4, Gid1 (S. cerevisiae, UniProt P53076 1-958); assay: […]
T4 sequence: T2 sequence

| Binder | binding result (Gid9) | binding result [1] | binding result [2] | binding result (Gid1) |
| --- | --- | --- | --- | --- |
| B1 | binds |  |  |  |
| B2 |  | binds | binds |  |
| B3 | binds |  |  | binds |
